# Results reported in patent US20170306002A1 (UNITED STATES OF AMERICA AS REPESENTED BY THE SECRETARY …, published 2017).
# Target: NA of A/Bethesda/NIH107-D31/2009 (pH1N1, H275Y) (influenza A virus …)
# Experiment: cell-based or functional assay
binder,measurement,value
"mAb CD6 (whole IgG) (antibody, V domains shown) VH: QVKLQESGGGLVQPKGSLKLSCAASGFTFNTYAMNWVRQAPGKGLEWVARIRSKSNNYATFYADSVKDRFTISRDDSQSMLYLQMHNLKTDDTAMYYCVRPSIYYYASGYLDVWGAGTTVTVSS VL: QIVLSQSPAILSASPGEKVTMTCRTSSSVSYMHWYQQKPGSSPKPWIYATSNLASGVPFRFSGSGSGTSYSLTISRVEAEDAATYYCQQWNSNPPTFGGGTKLEIKR","IC50, inhibition of NA activity in ELLA (fetuin substrate)",0.029 µg/mL
